Reference: PMC4995489, “Staphylokinase has distinct modes of interaction with antimicrobial peptides, modulating its plasminogen-activation properties” (Scientific Reports, 2016)
“Also recorded” adds a separate entry of the source. Bridges are numbered along the chain shown (N, C = ends). Where no end group is shown, it is not given here.

Legend:
[1] = molecular target: T1, staphylokinase (Sak, full-length, sakSTAR sequence, C-terminal His6-tag) (Staphylococcus aureus, UniProt Q99SU7); test: ITC of antimicrobial peptide binding to full-length staphylokinase; details: 25 °C, 200–400 μM peptide titrated into 8 μM Sak, 20 mM HEPES pH 7.4, One Set of Sites model, at least two experiments
T1 construct: Staphylokinase contains 136 amino acids and has a molecular weight of 15.5 kDa; made in house; host or cells: E. coli BL21 (DE3), pET29b, synthetic gene from GeneArt
T1 sequence (Q99SU7 28-163): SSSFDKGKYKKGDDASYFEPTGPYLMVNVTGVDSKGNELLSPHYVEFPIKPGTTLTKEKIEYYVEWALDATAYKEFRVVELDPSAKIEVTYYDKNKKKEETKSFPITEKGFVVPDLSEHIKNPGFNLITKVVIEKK
Procedure: (§1) Most peptides were purchased from Genscript (Piscataway, NJ) as custom-synthesized peptides synthesized using standard 9-fluorenylmethyoxycarbonyl (Fmoc) chemistry and they were purified by HPLC to >95% purity. […] The concentrations for most of the peptides were determined by UV absorption at 280 nm using molar extinction coefficients determined by ProtParam[54].
(§2) A synthetic gene for staphylokinase with optimized codons for expression in Escherichia coli was purchased from GeneArt (Life Technologies). Staphylokinase genes have been cloned and sequenced from different origins: the bacteriophages sakφC and sak42D, and the genomic DNA of a lysogenic S. aureus strain (sakSTAR)[56]. These indicate amino acid sequence differences at three positions in the coding sequences. In this study, we have worked with the sakSTAR protein sequence as it is the most commonly used variant. The gene was subcloned into a pET29b (Novagen), giving the expressed protein a C-terminal His6-tag when expressed in E. coli BL21 (DE3) cells.
(§3) All ITC runs were performed at 25 °C on a MicroCal VP-ITC microcalorimeter (Malvern, Westborough, MA). 200–400 μM peptide was titrated into 8 μM SakΔN10 or Sak in 20 mM HEPES, pH 7.4. […] Data analysis was performed using the MicroCal Origin software using the “One Set of Sites” binding model. At least two experiments were performed for each titration. Statistical analysis was performed to confirm the statistical validity of the differences in the KD values determined for LfcinB and Tritrp binding to SakΔN10 or Sak. p-values were calculated from Student’s t-tests at the 95% confidence level with a one-tailed hypothesis.

[2] = molecular target: T2, SakΔN10 (staphylokinase with its first ten residues deleted, C-terminal His6-tag) (Staphylococcus aureus, UniProt Q99SU7); test: ITC of antimicrobial peptide binding to SakΔN10; details: 25 °C; for Kd / KD: 200–400 μM peptide titrated into 8 μM SakΔN10, 20 mM HEPES pH 7.4, One Set of Sites model, at least two experiments
T2 construct: Staphylokinase contains 136 amino acids and has a molecular weight of 15.5 kDa; made in house; host or cells: E. coli BL21 (DE3), pET29b
T2 sequence (Q99SU7 38-163): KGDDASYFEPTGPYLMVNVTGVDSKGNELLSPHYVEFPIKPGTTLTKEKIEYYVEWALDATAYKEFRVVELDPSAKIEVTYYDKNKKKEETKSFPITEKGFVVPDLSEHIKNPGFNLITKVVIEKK
Procedure: as §1, §2, §3

[3] = tested on: Sak-dependent plasminogen activation; details: mCRAMP expression upregulated during staphylococcal pneumonia, intranasal infection mouse model; cited from earlier work
Description: In the present study, our aim was to evaluate staphylokinase as a more general interacting partner for antimicrobial peptides of different structures and origin. […] It is possible that additional factors may be involved in promoting its binding in vivo.

[4] = molecular target: T3, Staphylokinase (full-length Sak, sakSTAR sequence) (Staphylococcus aureus, UniProt P68802 28-163); test: ITC; 200-400 μM peptide titrated into 8 μM Sak or SakΔN10 in the cell; 25 °C; 20 mM HEPES, pH 7.4, no salt; One Set of Sites model; at least two experiments each; details: both partners purified
T3 construct: also called wtSak; full Sak; not shown: His6, C-terminal, kept
T3 sequence: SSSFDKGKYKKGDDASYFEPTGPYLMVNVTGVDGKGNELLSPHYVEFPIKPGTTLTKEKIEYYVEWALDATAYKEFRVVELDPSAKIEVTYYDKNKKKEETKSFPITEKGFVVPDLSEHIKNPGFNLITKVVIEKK

[5] = molecular target: T4, SakΔN10 (staphylokinase with its first ten residues deleted) (Staphylococcus aureus, UniProt P68802 38-163); test: as above; details: both partners purified
T4 construct: not shown: His6, C-terminal, kept
T4 sequence: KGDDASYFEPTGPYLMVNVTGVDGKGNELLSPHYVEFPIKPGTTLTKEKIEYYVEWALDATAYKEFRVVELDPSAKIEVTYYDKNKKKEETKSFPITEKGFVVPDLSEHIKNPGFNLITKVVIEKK

[6] = molecular target: T3, Staphylokinase (full-length Sak, …); test: as above; details: both partners purified; remark: listed apart in the source
[7] = molecular target: T3, Staphylokinase (full-length Sak, …); test: ITC + NMR titration; ITC of mCRAMP into full-length Sak repeated at 37 °C, together with the NMR titration data; not shown; details: both partners purified
[8] = molecular target: T4, SakΔN10 (staphylokinase with its first …); test: ITC; 200-400 μM peptide titrated into 8 μM Sak or SakΔN10 in the cell; 25 °C; 20 mM HEPES, pH 7.4, no salt; One Set of Sites model; at least two experiments each; details: both partners purified; remark: listed apart in the source

Molecule: CC[C@H](C)[C@@H]1NC(=O)[C@H](CO)NC(=O)[C@@H]2CCCN2C(=O)[C@H](C)NC(=O)CNC(=O)[C@H](CC(C)C)NC(=O)[C@H](CCCCN)NC(=O)[C@H](CCCCN)NC(=O)[C@H](CCSC)NC(=O)[C@H](CCCNC(=N)N)NC(=O)[C@H](Cc2c[nH]c3ccccc23)NC(=O)[C@H](CCC(N)=O)NC(=O)[C@H](Cc2c[nH]c3ccccc23)NC(=O)[C@H](CCCNC(=N)N)NC(=O)[C@H](CCCNC(=N)N)NC(=O)[C@@H](NC(=O)[C@H](CCCCN)NC(=O)[C@@H](N)Cc2ccccc2)CSSC[C@@H](C(=O)N[C@H](C(=O)N[C@@H](CCCNC(=N)N)C(=O)N[C@@H](CCCNC(=N)N)C(=O)N[C@@H](C)C(=O)N[C@@H](Cc2ccccc2)C(=O)O)C(C)C)NC(=O)[C@H]([C@@H](C)O)NC1=O [LfcinB]
- Kd [1]: 27.3 µM
- Kd [2]: 0.37 µM

Molecule: CC(C)C[C@H](NC(=O)[C@H](Cc1ccccc1)NC(=O)[C@@H]1CCCN1C(=O)[C@H](Cc1c[nH]c2ccccc12)NC(=O)[C@H](Cc1c[nH]c2ccccc12)NC(=O)[C@H](Cc1c[nH]c2ccccc12)NC(=O)[C@@H]1CCCN1C(=O)[C@H](Cc1ccccc1)NC(=O)[C@H](CCCNC(=N)N)NC(=O)[C@H](CCCNC(=N)N)NC(=O)[C@@H](N)C(C)C)C(=O)N[C@@H](CCCNC(=N)N)C(=O)N[C@@H](CCCNC(=N)N)C(N)=O [Tritrp]
- Kd [1]: 11.2 µM
- Kd [2]: 2.42 µM

Molecule: GLLRKGGEKIGEKLKKIGQKIKNFFQKLVPQPEQ [mCRAMP, mouse cathelicidin-related antimicrobial peptide, α-helical]
- augmentation of Sak-dependent plasminogen activation [3]: two-fold
- KD [1]: no binding; also recorded: no interaction
- KD [2]: weak interaction

Molecule: melittin
- KD [1]: weak interaction
- N (stoichiometry) ([2]; 200–400 μM peptide into 8 μM SakΔN10, 20 mM HEPES pH 7.4, One Set of Sites model): ~1
- KD [2]: weak interaction

B1: Bovine lactoferricin (peptide)
peptide: FKCRRWQWRMKKLGAPSITCVRRAF
modifications: disulfide 3-20
notes: Lactoferricin B, the peptide derived by intestinal proteolysis of bovine lactoferrin; also called LfcinB
- Kd [4]: 27.3 µM
- dH [4]: -4.68 kcal/mol
- stoichiometry N [4]: 0.98
- Kd [5]: 0.37 µM
- dH [5]: -30.1 kcal/mol
- stoichiometry N [5]: 0.99
- Kd [6]: 27.2 µM

B2: Tritrp (C-terminally amidated tritrpticin) (peptide)
peptide: VRRFPWWWPFLRR-NH2
notes: Tritrpticin, a cathelicidin derived from porcine neutrophils; the amidated version was used
- Kd [4]: 11.2 µM
- dH [4]: -3.02 kcal/mol
- stoichiometry N [4]: 1.16
- Kd [5]: 2.42 µM
- dH [5]: -7.01 kcal/mol
- stoichiometry N [5]: 1.14

B3: Mouse cathelicidin-related antimicrobial peptide (peptide)
peptide: GLLRKGGEKIGEKLKKIGQKIKNFFQKLVPQPEQ
notes: Cathelicidin-related antimicrobial peptide (CRAMP), the C-terminal peptide of the mouse cathelicidin precursor; also called mCRAMP
- Kd [7]: ≥ 100 µM
- stoichiometry N [8]: ~1
